The record followed here is PMC9114808.

The experiment concerns the target 14-3-3 protein gamma (UniProt P61982). As to the kind of experiment: peptide bead pull-down, label-free MS. The settings on record: reference: unphosphorylated peptide; sites T426.

Turning to “Septin 7 (Sept7) C-terminal tail peptide C-terminal tail, 416-438 (from UniProt Q16181) pT426 peptide”, the “binding against the reference” value is “stronger”.
